Consider 8 sequences from article PMC12990809.

Test in all cases: pulldown
Common to all, as to conditions: 20 nM protein, 1.5 uM RNA pool; 20 mM HEPES pH 7.8, 70 mM KCl, 10 mM NaCl, 10% glycerol, 2 mM DTT, 0.1 ug/uL BSA; 30 min, 4 C

Data set [1] has as its target T1, TVAG_371220 (Trichomonas vaginalis) (UniProt A2FYE4).
T1 sequence: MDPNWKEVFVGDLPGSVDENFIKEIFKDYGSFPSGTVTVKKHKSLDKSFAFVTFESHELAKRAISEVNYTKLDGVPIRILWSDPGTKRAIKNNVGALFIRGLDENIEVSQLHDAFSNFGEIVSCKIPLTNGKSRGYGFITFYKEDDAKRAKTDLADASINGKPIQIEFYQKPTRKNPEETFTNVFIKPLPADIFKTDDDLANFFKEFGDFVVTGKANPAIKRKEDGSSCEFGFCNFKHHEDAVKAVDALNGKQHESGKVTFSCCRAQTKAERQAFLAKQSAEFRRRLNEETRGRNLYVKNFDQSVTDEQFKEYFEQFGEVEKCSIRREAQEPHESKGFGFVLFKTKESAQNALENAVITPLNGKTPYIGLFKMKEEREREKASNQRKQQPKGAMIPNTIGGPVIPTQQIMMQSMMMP

For data set [2], the target named is T2, SCHCODRAFT_80278 (Schizophyllum commune) (UniProt A0ACF2ERL4).
T2 sequence: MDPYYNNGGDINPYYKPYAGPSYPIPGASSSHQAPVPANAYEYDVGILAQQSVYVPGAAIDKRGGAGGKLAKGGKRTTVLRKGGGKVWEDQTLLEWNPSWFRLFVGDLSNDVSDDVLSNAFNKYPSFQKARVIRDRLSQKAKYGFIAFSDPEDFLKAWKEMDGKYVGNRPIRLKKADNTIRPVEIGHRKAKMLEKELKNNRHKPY

Data set [3] addresses e_gw1.13.00.297.1 (Ostreococcus tauri) (UniProt A0A096P8F1).
The target of data set [4] is T3, LmjF.25.0080 (Leishmania major) (UniProt Q4QA88).
T3 sequence: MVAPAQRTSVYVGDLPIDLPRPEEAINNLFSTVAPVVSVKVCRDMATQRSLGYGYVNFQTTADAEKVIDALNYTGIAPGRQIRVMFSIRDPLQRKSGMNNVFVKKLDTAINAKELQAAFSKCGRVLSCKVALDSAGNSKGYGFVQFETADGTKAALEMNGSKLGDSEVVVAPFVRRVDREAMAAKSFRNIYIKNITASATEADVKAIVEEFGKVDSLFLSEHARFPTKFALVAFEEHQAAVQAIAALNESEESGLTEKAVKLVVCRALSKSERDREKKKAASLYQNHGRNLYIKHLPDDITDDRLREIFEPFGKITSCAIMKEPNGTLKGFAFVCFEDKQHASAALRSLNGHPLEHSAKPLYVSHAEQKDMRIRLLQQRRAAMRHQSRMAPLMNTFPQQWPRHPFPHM

In data set [5] the target is T4, PK27183.1 (Cannabis sativa) (UniProt A0A7J6I1V8).
T4 sequence: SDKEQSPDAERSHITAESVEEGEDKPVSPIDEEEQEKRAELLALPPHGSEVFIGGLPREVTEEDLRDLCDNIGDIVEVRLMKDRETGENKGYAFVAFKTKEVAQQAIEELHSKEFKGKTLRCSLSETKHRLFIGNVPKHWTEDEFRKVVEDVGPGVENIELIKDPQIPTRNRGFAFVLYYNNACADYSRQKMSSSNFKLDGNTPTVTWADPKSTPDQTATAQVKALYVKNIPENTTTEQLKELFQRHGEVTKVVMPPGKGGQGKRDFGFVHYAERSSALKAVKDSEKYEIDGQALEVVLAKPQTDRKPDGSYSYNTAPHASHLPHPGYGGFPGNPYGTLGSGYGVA

Data set [6] addresses T5, PRR3 (Homo sapiens) (UniProt P79522).
T5 sequence: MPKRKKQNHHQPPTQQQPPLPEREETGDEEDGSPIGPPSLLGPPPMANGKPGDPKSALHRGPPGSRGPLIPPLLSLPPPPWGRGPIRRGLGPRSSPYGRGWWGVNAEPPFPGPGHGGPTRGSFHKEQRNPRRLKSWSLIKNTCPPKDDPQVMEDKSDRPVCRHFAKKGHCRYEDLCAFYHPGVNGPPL

Data set [7] addresses T6, qkr58E-2 (Drosophila melanogaster) (UniProt Q5BID2).
T6 sequence: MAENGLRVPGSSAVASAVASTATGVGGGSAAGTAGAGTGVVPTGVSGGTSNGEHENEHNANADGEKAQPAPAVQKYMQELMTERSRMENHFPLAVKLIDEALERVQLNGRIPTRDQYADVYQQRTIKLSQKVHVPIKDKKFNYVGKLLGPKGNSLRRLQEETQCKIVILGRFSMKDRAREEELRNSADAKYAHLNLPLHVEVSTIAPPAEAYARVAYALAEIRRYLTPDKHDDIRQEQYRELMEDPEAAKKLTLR

Data set [8] has as its target T7, hnrnpa0 (Xenopus tropicalis) (UniProt A0A8J0QIP1).
T7 sequence: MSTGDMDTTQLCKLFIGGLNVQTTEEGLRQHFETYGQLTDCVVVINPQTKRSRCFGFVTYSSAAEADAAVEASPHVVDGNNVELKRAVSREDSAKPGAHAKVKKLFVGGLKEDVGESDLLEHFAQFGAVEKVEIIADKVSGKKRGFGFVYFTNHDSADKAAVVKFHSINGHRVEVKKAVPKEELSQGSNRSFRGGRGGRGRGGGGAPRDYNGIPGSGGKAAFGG

Sequence of e_gw1.13.00.297.1 (Ostreococcus tauri) (A0A096P8F1 entry or part of it): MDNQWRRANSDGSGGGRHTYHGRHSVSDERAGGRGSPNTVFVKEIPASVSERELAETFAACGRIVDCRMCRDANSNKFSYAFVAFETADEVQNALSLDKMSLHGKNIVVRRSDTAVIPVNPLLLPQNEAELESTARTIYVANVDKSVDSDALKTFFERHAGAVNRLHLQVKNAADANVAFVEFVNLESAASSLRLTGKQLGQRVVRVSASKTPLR

For the sequence AAAAAAG [RNAcompete motif RNCMPT00623], in data set [1], the binding signal (z-score (mean of top ten 7-mers)) worked out at 11.9. In turn, AACUAC [RNAcompete motif RNCMPT00678] yielded a binding signal (z-score (mean of top ten 7-mers)) in data set [2] of 13.6. With AAUAAG [RNAcompete motif RNCMPT00681], the binding signal (z-score (mean of top ten 7-mers)) in data set [3] came out at 20.7. Turning to AGAAAA [RNAcompete motif RNCMPT00688], the binding signal (z-score (mean of top ten 7-mers)) in data set [4] is 9.16. In data set [5], AGACACA [RNAcompete motif RNCMPT00685] displayed a binding signal (z-score (mean of top ten 7-mers)) of 13.3. AUAAGC [RNAcompete motif RNCMPT00628] showed a binding signal (z-score (mean of top ten 7-mers)) in data set [6] of 15.2.

Consider AUAAUA [RNAcompete motif RNCMPT00637], for which the binding signal (z-score (mean of top ten 7-mers)) in data set [7] was 13. The sequence AUUAGGA [RNAcompete motif RNCMPT00684] had a binding signal (z-score (mean of top ten 7-mers)) in data set [8] of 8.79.
